To fix the notation:
B1: scFv; the commonest letter at each place (parent)
chain 1: EVKLDETGGGLVQPGRPMKLSCVASGFTFSDYWMNWVRQSPEKGLEWVAQIRNKPYNYETYYSDSVKGRFTISRDDSKSSVYLQMNNLRVEDMGIYYCTGSYYGMDYWGQGTSVTVS
chain 2: DVVMTQTPLSLPVSLGDQASISCRSSQSLVHSNGNTYLRWYLQKPGQSPKVLIYKVSNRFSGVPDRFSGSGSGTDFTLKISRVEAEDLGVYFCSQSTHVPWTFGGGTKLEIK

The data set “fluorescein” covers variants of B1. Nature of the data set: Kd (Tite-Seq). As to conditions: with fluorescein; format: scFv 4-4-20, heavy + light.
The variants in data set [1] derive from B1. Nature of the data set: yeast surface expression (ratio to wild type); higher = more expressed. As to conditions: format: scFv 4-4-20, heavy + light.

Experimental findings from the FLAb antibody collection (doi:10.7554/elife.23156) are described below.

Bounds are passed on as bounds.

Take chain 1 F29R D31G: the Kd with fluorescein was ≥ 10 µM. Besides, the yeast surface expression in data set [1] was 0.755.
For chain 1 G104L W108R, in that order: ≥ 10 µM and 0.278.
For chain 1 T28S W33F, in that order: 1.02 µM and 0.903.
On the same counts, the results for chain 1 S101Y Y107E are ≥ 10 µM and 0.625.
Regarding chain 1 F29I N35I, the Kd in the data set with fluorescein is ≥ 10 µM. Besides, in data set [1], the yeast surface expression came to 0.383.
Turning to chain 1 T28I D31H, the Kd with fluorescein was 0.00128 µM. Further, in data set [1], the yeast surface expression was found to be 0.699.
For chain 1 G100M Y107T, in that order: ≥ 10 µM and 0.729.
As to chain 1 T28I F29R, the Kd in the data set with fluorescein was ≥ 10 µM. In data set [1], the yeast surface expression amounted to 0.695.
On the same counts, the results for chain 1 F29Q Y32C are 9.5 µM and 1.
On to chain 1 G100W D106F, for which, in the data set with fluorescein, the Kd is ≥ 10 µM. In addition, in data set [1], the yeast surface expression is 0.18.
On the same counts, the results for chain 1 S101L Y103K are ≥ 10 µM and 0.524.
For chain 1 D106H Y107A, in that order: ≥ 10 µM and 0.455.
For chain 1 T28A W33R M34S, in that order: ≥ 10 µM and 1.12.
On to chain 1 G100P W108M, for which the Kd in the data set with fluorescein was ≥ 10 µM. The yeast surface expression in data set [1] was determined as 0.572.
For chain 1 Y32T N35P, in that order: ≥ 10 µM and 0.612.
For chain 1 Y102G, the Kd in the data set with fluorescein turned out to be 1.91 µM. Moreover, the yeast surface expression in data set [1] worked out at 0.965.
For chain 1 S30A, in that order: 0.000803 µM and 1.08.
For chain 1 Y102H Y103C, in that order: 3.94 µM and 0.682.
On the same counts, the results for chain 1 S30W D31N are ≤ 0.000316 µM and 0.866.
As to chain 1 Y103P D106H, the Kd with fluorescein is ≥ 10 µM. Besides, in data set [1], the yeast surface expression was determined as 0.565.
For the variant chain 1 S101Y G104T, the Kd in the data set with fluorescein was ≥ 10 µM. In addition, the yeast surface expression in data set [1] amounted to 0.261.
On the same counts, the results for chain 1 Y103E W108R are ≥ 10 µM and 0.463.
On the same counts, the results for chain 1 D31Y W33C are ≥ 10 µM and 0.597.
For chain 1 Y32I M34S, in that order: ≥ 10 µM and 0.65.
Take chain 1 Y102L G109K: in the data set with fluorescein, the Kd is ≥ 10 µM. The yeast surface expression in data set [1] amounted to 0.214.
For chain 1 G100W Y102S, in that order: 0.00606 µM and 0.723.
chain 1 G109N: in the data set with fluorescein, the Kd is ≥ 10 µM. Moreover, the yeast surface expression in data set [1] was 0.622.
On the same counts, the results for chain 1 G109M are ≥ 10 µM and 0.213.
For chain 1 M105Y D106A, in that order: ≥ 10 µM and 0.432.
As for chain 1 Y103E Y107V, in the data set with fluorescein, the Kd is ≥ 10 µM. The yeast surface expression in data set [1] was 1.07.
On the same counts, the results for chain 1 G100H W108F are 0.00746 µM and 0.392.
On the same counts, the results for chain 1 G100W Y107Q are ≥ 10 µM and 0.323.
For chain 1 G100W Y107R, in that order: ≥ 10 µM and 0.229.
For chain 1 M34G W36A, the Kd with fluorescein was ≥ 10 µM. In data set [1], the yeast surface expression is 1.01.
On the same counts, the results for chain 1 F29Y Y32R are ≥ 10 µM and 0.761.
For chain 1 S101V Y107H, in that order: ≥ 10 µM and 0.556.
For chain 1 F29E, in that order: ≥ 10 µM and 0.778.
For the variant chain 1 T28N V37A, the Kd in the data set with fluorescein stood at 0.0729 µM. The yeast surface expression in data set [1] is 0.941.
On the same counts, the results for chain 1 D31S V37N are ≥ 10 µM and 0.629.
On the same counts, the results for chain 1 M105E G109W are ≥ 10 µM and 0.278.
On the same counts, the results for chain 1 S101G M105A are ≥ 10 µM and 0.988.
For chain 1 S101L Y103S M105A, in the data set with fluorescein, the Kd was ≥ 10 µM. Also, in data set [1], the yeast surface expression came out at 0.713.
On the same counts, the results for chain 1 T28Y Y32K are ≥ 10 µM and 0.818.
On the same counts, the results for chain 1 D31E V37L are ≥ 10 µM and 0.735.
On the same counts, the results for chain 1 N35L W36I are ≥ 10 µM and 0.256.
As for chain 1 G100T M105T, the Kd in the data set with fluorescein was ≥ 10 µM. Besides, in data set [1], the yeast surface expression was determined as 0.909.
On the same counts, the results for chain 1 G100T M105C are ≥ 10 µM and 0.754.
On the same counts, the results for chain 1 V37A are 0.0434 µM and 0.784.
For chain 1 V37C, in that order: ≤ 0.000316 µM and 0.926.
Regarding chain 1 S30G W36S, the Kd in the data set with fluorescein was found to be 1.47 µM. For the same variant, the yeast surface expression in data set [1] is 0.275.
For chain 1 Y32K W33I, in that order: ≥ 10 µM and 0.763.
On the same counts, the results for chain 1 S101F W108S G109S are ≥ 10 µM and 0.242.
For chain 1 M105I Y107S, in that order: ≥ 10 µM and 0.853.
For chain 1 S30R M34D, in the data set with fluorescein, the Kd is ≥ 10 µM. Besides, the yeast surface expression in data set [1] was found to be 0.775.
For chain 1 S30R M34C, in that order: 0.00444 µM and 0.668.
With chain 1 M34I W36F, in the data set with fluorescein, the Kd is 0.0107 µM. For the same variant, the yeast surface expression in data set [1] was found to be 0.811.
On the same counts, the results for chain 1 G100S Y103L W108N are ≥ 10 µM and 0.26.
On the same counts, the results for chain 1 S101W D106S are ≥ 10 µM and 0.516.
Consider chain 1 G100S Y102C, for which the Kd in the data set with fluorescein is ≥ 10 µM. For the same variant, in data set [1], the yeast surface expression amounted to 0.675.
On the same counts, the results for chain 1 G100S Y102K are 0.0335 µM and 0.868.
For chain 1 S101M, the Kd with fluorescein is ≥ 10 µM. In addition, the yeast surface expression in data set [1] amounted to 0.591.
On the same counts, the results for chain 1 G100S are 0.0038 µM and 0.938.
For chain 1 W33R V37W, in that order: ≥ 10 µM and 0.543.
With chain 1 G104T D106C Y107Q, in the data set with fluorescein, the Kd is ≥ 10 µM. In addition, in data set [1], the yeast surface expression was determined as 0.31.
On the same counts, the results for chain 1 W33Y are ≥ 10 µM and 0.976.
For chain 1 W33D W36M, in that order: ≥ 10 µM and 0.165.
On the same counts, the results for chain 1 S30L W33D are ≥ 10 µM and 0.844.
For chain 1 D31G V37N, the Kd in the data set with fluorescein was determined as 0.00785 µM. Further, in data set [1], the yeast surface expression is 0.512.
On the same counts, the results for chain 1 T28S M34R are ≥ 10 µM and 1.99.
Take chain 1 F29N D31C M34N: the Kd in the data set with fluorescein is ≥ 10 µM. For the same variant, in data set [1], the yeast surface expression worked out at 0.701.
For chain 1 S101Q G104R, in that order: ≥ 10 µM and 0.384.
chain 1 Y32W W33Q: the Kd in the data set with fluorescein is ≥ 10 µM. For the same variant, the yeast surface expression in data set [1] was determined as 0.886.
For chain 1 F29I S30L, in that order: 0.676 µM and 0.564.
For chain 1 D106T W108Q, in that order: ≥ 10 µM and 0.5.
As to chain 1 T28D W36F, in the data set with fluorescein, the Kd was 0.0154 µM. In addition, the yeast surface expression in data set [1] amounted to 0.895.
For chain 1 D31S W36C, in that order: ≥ 10 µM and 0.929.
On the same counts, the results for chain 1 D31E W36H are ≥ 10 µM and 0.658.
For chain 1 Y103N G104T Y107K, in that order: ≥ 10 µM and 0.619.
Consider chain 1 S101W M105Q, for which the Kd with fluorescein was ≥ 10 µM. Also, the yeast surface expression in data set [1] stood at 0.517.
On the same counts, the results for chain 1 G100D G109I are ≥ 10 µM and 0.553.
On the same counts, the results for chain 1 F29C W33E are ≥ 10 µM and 0.556.
For chain 1 G104F D106G, in that order: ≥ 10 µM and 0.169.
chain 1 Y102N D106E: in the data set with fluorescein, the Kd is ≥ 10 µM. For the same variant, in data set [1], the yeast surface expression worked out at 1.27.
For chain 1 G100W G109S, in that order: ≥ 10 µM and 0.43.
Regarding chain 1 T28S V37Q, in the data set with fluorescein, the Kd was found to be 0.00184 µM. In addition, the yeast surface expression in data set [1] was found to be 0.71.
In the case of chain 1 Y103G W108F, the Kd in the data set with fluorescein stood at 0.00194 µM. In addition, in data set [1], the yeast surface expression came to 1.06.
For chain 1 F29L S30T V37W, in that order: ≥ 10 µM and 0.536.
On the same counts, the results for chain 1 T28V D31M are 0.00444 µM and 0.587.
On the same counts, the results for chain 1 F29Q V37A are 5.66 µM and 0.847.
Turning to chain 1 D106W Y107G G109L, the Kd with fluorescein was ≥ 10 µM. For the same variant, in data set [1], the yeast surface expression came to 0.109.
As for chain 1 G104R Y107W, the dissociation constant (Kd) with fluorescein was ≥ 10 µM. For the same variant, the yeast surface expression in data set [1] is 0.257.
For chain 1 W33Q W36S, in that order: 7.33 µM and 0.839.
Take chain 1 S30P W33Q W36F: in the data set with fluorescein, the Kd is ≥ 10 µM. Also, in data set [1], the yeast surface expression amounted to 0.838.
For chain 1 F29M N35W, in that order: ≥ 10 µM and 0.403.
For the variant chain 1 D106F Y107G, the Kd with fluorescein was ≥ 10 µM. For the same variant, the yeast surface expression in data set [1] worked out at 0.238.
On the same counts, the results for chain 1 S101A Y103E are 0.00966 µM and 1.23.
On the same counts, the results for chain 1 Y103C W108N are 0.495 µM and 0.227.
On the same counts, the results for chain 1 T28L are 0.00166 µM and 0.955.
As for chain 1 T28K, in the data set with fluorescein, the Kd came out at 0.000988 µM. Moreover, the yeast surface expression in data set [1] worked out at 1.07.
In the case of chain 1 F29D W33V, the Kd with fluorescein is ≥ 10 µM. Moreover, the yeast surface expression in data set [1] is 0.87.
As to chain 1 S101Y M105T, the dissociation constant (Kd) in the data set with fluorescein is ≥ 10 µM. Moreover, the yeast surface expression in data set [1] was determined as 0.44.
For chain 1 Y103N G104Q, in that order: ≥ 10 µM and 0.766.
On the same counts, the results for chain 1 S101N Y103N are ≥ 10 µM and 1.21.
For chain 1 G104T W108A, in that order: ≥ 10 µM and 0.326.
For the variant chain 1 F29E M34E, in the data set with fluorescein, the Kd was ≥ 10 µM. Moreover, the yeast surface expression in data set [1] came to 0.455.
For chain 1 G100T S101N G104K, in that order: ≥ 10 µM and 0.565.
On the same counts, the results for chain 1 W33T W36Y are ≥ 10 µM and 0.79.
For chain 1 G104S Y107S, the Kd with fluorescein is ≥ 10 µM. In addition, the yeast surface expression in data set [1] turned out to be 0.437.
On the same counts, the results for chain 1 M34N W36A are ≥ 10 µM and 0.608.
On the same counts, the results for chain 1 G100D Y103C are ≥ 10 µM and 0.414.
For chain 1 D106W G109K, in that order: ≥ 10 µM and 0.167.
For chain 1 D106W G109V, the Kd in the data set with fluorescein was ≥ 10 µM. Moreover, the yeast surface expression in data set [1] amounted to 0.0997.
For chain 1 G100N G104F, in that order: ≥ 10 µM and 0.321.
For chain 1 T28P W36P, in that order: ≥ 10 µM and 0.295.
On to chain 1 M105S Y107W, for which the Kd in the data set with fluorescein was ≥ 10 µM. Further, the yeast surface expression in data set [1] is 0.826.
On the same counts, the results for chain 1 S30V D31V W36E are ≥ 10 µM and 1.33.
